Test [1] deals with T1, human BMP7 (human, UniProt P18075 293-431).
T1 sequence: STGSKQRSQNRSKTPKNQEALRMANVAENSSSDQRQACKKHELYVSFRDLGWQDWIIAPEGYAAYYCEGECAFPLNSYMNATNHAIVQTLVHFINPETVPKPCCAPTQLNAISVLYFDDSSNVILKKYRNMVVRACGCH
Kind of test: specificity ELISA, coated antigen, IgG 0.2 uM. As to the method: (§1) After washing the plates three times with 100 uL TBST, each antigen was incubated with 40 uL of purified Fab or IgG samples at a concentration of 1 uM and 0.2 uM respectively (in PBST buffer).
(§2) After 2 h incubation at RT, the plates were again washed three times and bound Fabs/IgGs detected by adding 40 uL of a 1:5000 dilution of secondary AP-conjugated anti-human IgG F(ab2) antibody. After 1 h at RT, the signal was developed by adding 40 uL AttoPhos substrate according to the manufacturer's protocol and the plates were analyzed immediately using an excitation wavelength of 430 nm and an emission wavelength of 535 nm with an ELISA plate reader.
On the technique in general: In an ELISA, binding on a coated surface is turned into a signal by an enzyme label.

The target of the next test is T2, mouse BMP6 (mouse, UniProt P20722 372-510, limits assumed).
T2 construct: also called mBMP6; mBMP6_RD
T2 sequence (looked up): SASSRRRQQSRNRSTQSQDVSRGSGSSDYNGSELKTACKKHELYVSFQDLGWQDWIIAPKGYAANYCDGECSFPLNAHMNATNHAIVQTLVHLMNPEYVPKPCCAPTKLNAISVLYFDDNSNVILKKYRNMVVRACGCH
Briefly: specificity ELISA, coated antigen, IgG 0.2 uM. The procedure:
as §1, §2

The target in test [2] is T3, Bovine serum albumin (bovine, UniProt P02769 25-607).
T3 construct: unrelated control antigen in the specificity ELISA; also called BSA
Kind of test: specificity ELISA, coated antigen, IgG 0.2 uM. The procedure:
as §1, §2

For test [3], the target named is T4, human BMP5 (human, UniProt P22003 317-454, limits assumed).
T4 sequence: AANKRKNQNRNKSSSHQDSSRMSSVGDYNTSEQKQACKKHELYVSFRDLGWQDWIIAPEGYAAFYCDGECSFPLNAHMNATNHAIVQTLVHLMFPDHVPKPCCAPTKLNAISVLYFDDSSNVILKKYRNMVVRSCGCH
Kind of test: specificity ELISA, coated antigen, IgG 0.2 uM. The procedure:
as §1, §2

The target of test [4] is T5, human BMP6 (human, UniProt P22004 382-513, limits assumed).
T5 sequence: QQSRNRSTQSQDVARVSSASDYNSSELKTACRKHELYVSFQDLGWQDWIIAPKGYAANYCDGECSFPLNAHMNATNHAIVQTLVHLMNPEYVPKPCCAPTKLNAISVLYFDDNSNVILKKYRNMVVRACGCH
Kind of test: specificity ELISA, coated antigen, IgG 0.2 uM. As to the method:
as §1, §2

Test [5] concerns the target T5, human BMP6. Briefly: cell-based or functional assay.
Test [6] concerns the target T5, human BMP6. Briefly: Biacore. Background: In SPR one partner is held on a chip, and binding of the other changes the refractive index at the surface.
In test [7] the target is T6, human BMP2 (human, UniProt P12643 283-396). Kind of test: cell-based or functional assay.
Test [8] has as its target T1, human BMP7. Kind of test: cell-based or functional assay.
Test [9] addresses T5, human BMP6. Kind of test: cell-based or functional assay. The source holds these as a separate data set.
The target of test [10] is T5, human BMP6. Kind of test: cell-based or functional assay. This is another data set of the same source.
Test [11] deals with 384 purified extracellular or secretory proteins (Protagen UNIchip). Briefly: Protagen UNIchip protein chip with 384 purified extracellular or secretory proteins, purified hIgG1.
Test [12] addresses T5, human BMP6. Kind of test: method not stated in the table (Table 7 names Biacore).
Test [13] addresses T5, human BMP6. Kind of test: cell-based or functional assay. The source holds these as a separate data set.
Test [14] concerns the target T6, human BMP2. Briefly: cell-based or functional assay. The source holds these as a separate data set.
For test [15], the target named is T1, human BMP7. Kind of test: cell-based or functional assay. The source holds these as a separate data set.
In test [16] the target is T5, human BMP6. Briefly: cell-based or functional assay. This is another data set of the same source.
Test [17] has as its target T4, human BMP5. Briefly: cell-based or functional assay.
Test [18] concerns the target T4, human BMP5. Briefly: cell-based or functional assay. This is another data set of the same source.
Test [19] deals with T6, human BMP2. Briefly: cell-based or functional assay. This is another data set of the same source.
Test [20] addresses T3, Bovine serum albumin. Kind of test: ELISA on coated antigen, detection with anti-Fab-AP, fluorescence signal intensity.
Test [21] deals with T5, human BMP6. Briefly: ELISA binding assay; reference human BMP7.

A word on the Kd: it is the free concentration of one partner at which half of the binding sites on the other are occupied at equilibrium, for simple one-to-one binding.

Changes are numbered by the printed parent chain. Names may count otherwise. Like-named read-outs stand apart in the source and are kept apart here.

T6 sequence (P12643 283-396 limits assumed): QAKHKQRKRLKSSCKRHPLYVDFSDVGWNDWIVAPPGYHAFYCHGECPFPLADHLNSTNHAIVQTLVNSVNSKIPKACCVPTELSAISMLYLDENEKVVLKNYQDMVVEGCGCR
T3 sequence (P02769 25-607 limits assumed): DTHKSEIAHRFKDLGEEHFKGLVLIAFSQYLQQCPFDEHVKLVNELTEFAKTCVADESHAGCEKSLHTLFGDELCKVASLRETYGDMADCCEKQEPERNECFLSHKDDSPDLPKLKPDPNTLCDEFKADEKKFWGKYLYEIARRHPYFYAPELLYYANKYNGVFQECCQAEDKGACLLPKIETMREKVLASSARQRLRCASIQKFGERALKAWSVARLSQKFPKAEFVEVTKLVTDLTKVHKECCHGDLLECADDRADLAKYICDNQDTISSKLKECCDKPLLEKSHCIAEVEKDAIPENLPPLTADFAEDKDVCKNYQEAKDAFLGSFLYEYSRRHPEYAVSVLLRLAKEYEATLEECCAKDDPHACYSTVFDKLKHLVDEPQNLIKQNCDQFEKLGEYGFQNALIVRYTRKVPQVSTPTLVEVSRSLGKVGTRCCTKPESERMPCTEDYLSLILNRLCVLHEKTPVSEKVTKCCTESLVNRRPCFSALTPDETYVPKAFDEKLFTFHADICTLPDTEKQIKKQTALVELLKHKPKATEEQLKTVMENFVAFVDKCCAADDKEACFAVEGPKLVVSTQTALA

In the case of Control IgG (antibody), the Signal over background came out at 14 with human BMP7 [1]; 18 with mouse BMP6; 1 in the test with Bovine serum albumin [2]; 4 in the test with human BMP5 [3]; 61 with human BMP6 [4].

B1: Antibody 5 (antibody, human IgG1, lambda, V domains shown)
VH: QVQLVESGGGLVKPGGSLRLSCAASGFTFSSYVVHWVRQAPGKGLEWVGRIKRESSSYTTMYAAPVKGRFTISRDDSKNTLYLQMNSLKTEDTAVYYCARVERSKSGFDNWGQGTLVTVSS
VL: QSVLTQPPSVSGAPGQRVTISCTGSSSNIGAGYSVHWYQQLPGTAPKLLIYGQSERPSGVPDRFSGSKSGTSASLAITGLQAEDEADYYCQSWDSSQTLVVFGGGTKLTVLG
notes: germlined clone of NOV0787 (HCDR2-matured NOV0442_VL[Y49,G50,N51Q]); human IgG1; lead antibody; also called NOV0951; NOV951
Regarding B1, the “BRE-Luc RGA IC50” value with human BMP6 [5] amounted to 0.26 nM. Also, in the test with human BMP6 [5], the “RGA selectivity, hBMP6 over hBMP7” value was approximately 1000 fold. The Kd in the test with human BMP6 [6] is approximately 0.1 nM; with human BMP6 [12], 0.1 nM. The figures for the “RGA IC50” value with human BMP2 [7], with human BMP7 [8] and with human BMP6 [9] were more than 25 µg/mL, 25 µg/mL and 0.04 µg/mL, respectively. For the same molecule, the RGA max with human BMP2 [7] came out at 1; in the test with human BMP7 [8] it was 1; with human BMP6 [9], 0.9. The RGA min with human BMP2 [7] amounted to 0.9; in the test with human BMP7 [8] it was 0.5; with human BMP6 [9] it was 0.02. Further, the “IC50 (read off the curve); BMP6-induced BRE-luc reporter activity in HEP3B cells” value (“IC50 (read off the curve)” for short) with human BMP6 [10] was approximately 0.5 nM. The molecule further gave an off-target hits in test [11] of less than 10 hits. Moreover, the Signal over background with human BMP7 [1] was 8; with mouse BMP6 it was 24; with Bovine serum albumin [2], 1; with human BMP6 [4], 65. Besides, the “IC50(ug/ml) BMP6 reporter” value with human BMP6 [13] is 0.06 µg/mL. Besides, the “selectivity window of BMP6 over this BMP (BRE-luc reporter)” value with human BMP2 [14] and with human BMP7 [15] was not below 500 fold throughout. Further, the “BRE-luc reporter IC50 in Hep3B” value with human BMP6 [16] stood at 0.4 nM.

B2: Antibody 6 (antibody, human IgG1, lambda, V domains shown)
VH: B1 VH with I51T, K52R, R53H, E54S, S55D, S56M, S57G, T59A, M61S
VL: B1 VL
notes: germlined clone of NOV0798 (HCDR2-matured NOV0442_VL[Y49,G50,N51Q]); human IgG1; lead antibody; also called NOV0954; NOV954
As for B2, the “BRE-Luc RGA IC50” value with human BMP6 [5] is 0.3 nM. Also, the “RGA selectivity, hBMP6 over hBMP7” value with human BMP6 [5] was approximately 1000 fold. Moreover, the results for the Kd in the test with human BMP6 [6] and in the test with human BMP6 [12] were approximately 0.1 nM and less than 0.1 nM, respectively. Further, the “RGA IC50” value was more than 25 µg/mL in the test with human BMP2 [7], 25 µg/mL with human BMP7 [8], more than 25 µg/mL in the test with human BMP5 [17] and 0.05 µg/mL with human BMP6 [9]. Besides, the RGA max with human BMP2 [7] is 1; with human BMP7 [8] it was 0.9; with human BMP5 [17], 1; with human BMP6 [9] it was 1. Besides, the RGA min stood at 1 with human BMP2 [7], 0.5 with human BMP7 [8], 0.9 with human BMP5 [17] and 0.02 with human BMP6 [9]. Further, the “IC50 (read off the curve)” value with human BMP6 [10] was approximately 0.5 nM. This molecule also came in with an off-target hits in test [11] of less than 10 hits. Further, the Signal over background was found to be 3 with human BMP7 [1]; 29 with mouse BMP6; 1 in the test with Bovine serum albumin [2]; 2 with human BMP5 [3]; 38 in the test with human BMP6 [4]. Also, the “IC50(ug/ml) BMP6 reporter” value with human BMP6 [13] is 0.08 µg/mL. In addition, the “selectivity window of BMP6 over this BMP (BRE-luc reporter)” value in the test with human BMP2 [14], with human BMP7 [15] and in the test with human BMP5 [18] was not below 500 fold throughout. Moreover, the “BRE-luc reporter IC50 in Hep3B” value with human BMP6 [16] amounted to 0.4 nM.

B3: Antibody 3 (antibody, human IgG1, lambda, V domains shown)
VH: B1 VH with R53D, E54H, S55K, S56Q, S57G, M61A, P65S
VL: B1 VL with Q53S
notes: germlined clone of NOV0800 (HCDR2-matured NOV0442_VL[Y49,G50,N51S]); human IgG1; back-up antibody; also called NOV0961; NOV961
For the molecule B3, the “RGA IC50” value with human BMP2 [7] was more than 25 µg/mL; in the test with human BMP7 [8] it was more than 25 µg/mL; in the test with human BMP5 [17], more than 25 µg/mL; with human BMP6 [9], 0.08 µg/mL. Further, the RGA max amounted to 1 in the test with human BMP2 [7], 1 in the test with human BMP7 [8], 0.9 in the test with human BMP5 [17] and 0.9 with human BMP6 [9]. Besides, the RGA min with human BMP2 [7] was found to be 0.8; with human BMP7 [8], 0.8; with human BMP5 [17] it was 0.8; in the test with human BMP6 [9], 0.02. Further, the Signal over background with human BMP7 [1] worked out at 2; in the test with mouse BMP6, 29; with Bovine serum albumin [2], 1; with human BMP5 [3] it was 1; in the test with human BMP6 [4], 48.

B4: Antibody 7 (antibody, human IgG1, lambda, V domains shown)
VH: B1 VH with K52R, R53L, S55T, S56H, S57G, T59A, T60A, M61E, P65S
VL: B1 VL
notes: germlined clone of NOV0806 (HCDR2-matured NOV0442_VL[Y49,G50,N51Q]); human IgG1; final lead; also called NOV0958; NOV958
As to B4, the “BRE-Luc RGA IC50” value in the test with human BMP6 [5] came out at 0.26 nM. The “RGA selectivity, hBMP6 over hBMP7” value with human BMP6 [5] is approximately 1000 fold. In addition, the Kd was approximately 0.1 nM in the test with human BMP6 [6] and 0.1 nM with human BMP6 [12]. In addition, the “RGA IC50” value in the test with human BMP7 [8] is 25 µg/mL; in the test with human BMP5 [17], more than 25 µg/mL; in the test with human BMP6 [9] it was 0.04 µg/mL; with human BMP2 [19] it was more than 25 µg/mL. Besides, the RGA max with human BMP7 [8] worked out at 0.9; with human BMP5 [17], 1.1; in the test with human BMP6 [9], 0.9; with human BMP2 [19], 0.9. Besides, the RGA min amounted to 0.5 with human BMP7 [8], 1.1 with human BMP5 [17], 0.02 with human BMP6 [9] and 1.1 with human BMP2 [19]. Moreover, the selectivity window of BMP6 over this BMP (BRE-luc reporter) was more than 500 fold in the test with human BMP2 [19], not below 500 fold in the test with human BMP7 [15] and not below 500 fold with human BMP5 [18]. The “IC50 (read off the curve)” value in the test with human BMP6 [10] is approximately 0.5 nM. In test [11], the off-target hits was less than 10 hits. For the same molecule, the binding result with Bovine serum albumin [20] was “no binding (tested: not given on the sheet)”. Besides, the Signal over background with human BMP7 [1] stood at 7; with mouse BMP6, 32; with Bovine serum albumin [2] it was 1; with human BMP6 [4] it was 59. In addition, in the test with human BMP6 [13], the “IC50(ug/ml) BMP6 reporter” value came out at 0.07 µg/mL. Besides, in the test with human BMP6 [16], the “BRE-luc reporter IC50 in Hep3B” value came to 0.4 nM. Also, the “fold selectivity for human BMP6 over human BMP7” value in the test with human BMP6 [21] was more than 500 fold.
